Key:
Conditions in all cases: both partners purified
SurA-core [1] = target: T1, SurA-core (E. coli, UniProt P0ABZ6 21-428, deleting codons for residues 172–389); experiment: FRET or BRET; single-molecule FRET (pulsed interleaved excitation) between donor and acceptor on the two termini of unfolded OmpX (~75 pM) with 30 μM SurA-WT or SurA-core; 20 mM Tris-HCl, 0.1 M urea, 0.02% Tween-20, 1 mM aged Trolox, pH 8.0, ~21 °C; binding is read from the change of the client's own FRET distribution
T1 construct: gene numbering including the signal peptide; no cleavage step described; also called core domain; construct lacking both PPIase domains; source: E. coli BL21(DE3), purified (HisTrap, dialysis)
T1 sequence (looked up): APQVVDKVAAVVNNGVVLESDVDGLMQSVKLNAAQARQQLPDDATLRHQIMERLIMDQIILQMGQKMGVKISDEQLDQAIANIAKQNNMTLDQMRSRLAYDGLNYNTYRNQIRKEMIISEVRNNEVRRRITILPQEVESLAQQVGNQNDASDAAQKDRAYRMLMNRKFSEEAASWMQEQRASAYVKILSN

SurA-WT [2] = target: T2, SurA-WT (E. coli, UniProt P0ABZ6 21-428); experiment: as above
T2 construct: no cleavage step is described; For NMR the protein was made in D2O medium with 13C labels on Ile delta1 and Met epsilon methyls; also called wild-type SurA; apo-SurA; source: E. coli BL21(DE3), purified (HisTrap, dialysis)
T2 sequence (looked up): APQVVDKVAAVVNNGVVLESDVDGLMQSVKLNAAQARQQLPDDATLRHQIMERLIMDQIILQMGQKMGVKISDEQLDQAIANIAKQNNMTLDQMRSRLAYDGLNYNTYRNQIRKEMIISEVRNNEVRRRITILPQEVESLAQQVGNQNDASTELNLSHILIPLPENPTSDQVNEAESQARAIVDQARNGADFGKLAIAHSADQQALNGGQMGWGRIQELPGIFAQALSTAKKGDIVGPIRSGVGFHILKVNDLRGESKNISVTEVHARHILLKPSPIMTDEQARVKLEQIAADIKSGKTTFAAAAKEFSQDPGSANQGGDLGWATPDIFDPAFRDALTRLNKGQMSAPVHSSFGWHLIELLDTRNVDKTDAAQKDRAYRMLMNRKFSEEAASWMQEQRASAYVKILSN

SurA-core [3] = target: T1, SurA-core; experiment: MST; 100 nM Alexa Fluor 488-labelled tBamA or OmpX, SurA-WT or SurA-core in serial dilution (40 μM–1.2 nM for tBamA, 12.5 μM–3 nM for OmpX); 0.8 M urea, 20 mM Tris-HCl, pH 8.0, 25 °C; fitted to a Hill equation, apparent Kd
SurA-WT [4] = target: T2, SurA-WT; experiment: as above
SurA-WT [5] = target: T2, SurA-WT; experiment: NMR titration; methyl-TROSY (2D 1H-13C SOFAST-HMQC) of Ile/Met 13CH3-labelled SurA-WT, single point: 5 µM SurA and 5 µM unfolded OMP; 5 mM EDTA, 20 mM Tris-HCl, pH 8.0, 0.8 M urea, 25 °C; peak intensities and CSPs

B1: Cys-OmpX-Cys labelled with Alexa Fluor 488 and ATTO 565 (natural protein)
chain: MGSCATSTVTGGYAQSDAQGQMNKMGGFNLKYRYEEDNSPLGVIGSFTYTEKSRTASSGDYNKNQYYGITAGPAYRINDWASIYGVVGVGYGKFQTTEYPTYKHDTSDYGFSYGAGLQFNPMENVALDFSYEQSRIRSVDVGTWIAGVGYRFC
modifications: Alexa Fluor 488 and ATTO 565 via maleimide on the N- and C-terminal Cys residues (stochastic labelling)
notes: additional C-terminal Cys residue; Unfolded client in 0.1 M urea; also called OmpX (smFRET); FRET-labelled OmpX; source: E. coli BL21[DE3], inclusion bodies, purified; labelled by maleimide chemistry
binding result (SurA-core [1]): binds
binding result (SurA-WT [2]): binds

B2: Cys-OmpX labelled with Alexa Fluor 488 (natural protein)
chain: MGSCATSTVTGGYAQSDAQGQMNKMGGFNLKYRYEEDNSPLGVIGSFTYTEKSRTASSGDYNKNQYYGITAGPAYRINDWASIYGVVGVGYGKFQTTEYPTYKHDTSDYGFSYGAGLQFNPMENVALDFSYEQSRIRSVDVGTWIAGVGYRF
modifications: Alexa Fluor 488 on the N-terminal Cys
notes: lacks the C-terminal Cys of Cys-OmpX-Cys; The MST methods say only 'Alexa Fluor 488-labelled OmpX'; also called Alexa Fluor 488-labelled OmpX; OmpX (MST); source: E. coli BL21[DE3], inclusion bodies, purified; labelled by maleimide chemistry
binding result (SurA-core [3]): binds
binding result (SurA-WT [4]): binds

B3: OmpX (natural protein, UniProt P0A917 24-171, looked up)
chain: ATSTVTGGYAQSDAQGQMNKMGGFNLKYRYEEDNSPLGVIGSFTYTEKSRTASSGDYNKNQYYGITAGPAYRINDWASIYGVVGVGYGKFQTTEYPTYKHDTSDYGFSYGAGLQFNPMENVALDFSYEQSRIRSVDVGTWIAGVGYRF
notes: Unfolded client in the assay (0.8 M urea); Cloned at the NdeI site, so a start Met probably precedes residue 24; also called unfolded OmpX; full-length OmpX; source: E. coli BL21[DE3], inclusion bodies, purified in 6 M Gdn-HCl (Superdex 75)
binding result (SurA-WT [5]): binds

B4: tOmpA (domain or fragment, UniProt P0A910 22-192, looked up)
chain: APKDNTWYTGAKLGWSQYHDTGFINNNGPTHENQLGAGAFGGYQVNPYVGFEMGYDWLGRMPYKGSVENGAYKAQGVQLTAKLGYPITDDLDIYTRLGGMVWRADTKSNVYGKNHDTGVSPVFAGGVEYAITPEIATRLEYQWTNNIGDAHTIGTRPDNGMLSLGVSYRFG
notes: Unfolded client (0.8 M urea); source: E. coli BL21[DE3], inclusion bodies, purified in 6 M Gdn-HCl (Superdex 75)
binding result (SurA-WT [5]): binds

B5: OmpF (natural protein, UniProt P02931 23-362, looked up)
chain: AEIYNKDGNKVDLYGKAVGLHYFSKGNGENSYGGNGDMTYARLGFKGETQINSDLTGYGQWEYNFQGNNSEGADAQTGNKTRLAFAGLKYADVGSFDYGRNYGVVYDALGYTDMLPEFGGDTAYSDDFFVGRVGGVATYRNSNFFGLVDGLNFAVQYLGKNERDTARRSNGDGVGGSISYEYEGFGIVGAYGAADRTNLQEAQPLGNGKKAEQWATGLKYDANNIYLAANYGETRNATPITNKFTNTSGFANKTQDVLLVAQYQFDFGLRPSIAYTKSKAKDVEGIGDVDLVNYFEVGATYYFNKNMSTYVDYIINQIDSDNKLGVGSDDTVAVGIVYQF
notes: as for B4
binding result (SurA-WT [5]): binds

Source: publication PMC11401910, “Dual client binding sites in the ATP-independent chaperone SurA” (Nature Communications, 2024)
